Source: US20230331815A1 (priority 2020, published 2023)

B1: hLF: human lactoferrin (LF), 711 amino acids, SEQ ID NO:4; 70-80 kDa basic protein of the transferrin family (protein, listed as Homo sapiens)
chain: MKLVFLVLLFLGALGLCLAGRRRRSVQWCAVSQPEATKCFQWQRNMRKVRGPPVSCIKRDSPIQCIQAIAENRADAVTLDGGFIYEAGLAPYKLRPVAAEVYGTERQPRTHYYAVAVVKKGGSFQLNELQGLKSCHTGLRRTAGWNVPIGTLRPFLNWTGPPEPIEAAVARFFSASCVPGADKGQFPNLCRLCAGTGENKCAFSSQEPYFSYSGAFKCLRDGAGDVAFIRESTVFEDLSDEAERDEYELLCPDNTRKPVDKFKDCHLARVPSHAVVARSVNGKEDAIWNLLRQAQEKFGKDKSPKFQLFGSPSGQKDLLFKDSAIGFSRVPPRIDSGLYLGSGYFTAIQNLRKSEEEVAARRARVVWCAVGEQELRKCNQWSGLSEGSVTCSSASTTEDCIALVLKGEADAMSLDEGYVYTAGKCGLVPVLAENYKSQQSSDPDPNCVDRPVEGYLAVAVVRRSDTSLTWNSVKGKKSCHTAVDRTAGWNIPMGLLFNQTGSCKFDEYFSQSCAPGSDPRSNLCALCIGDEQGENKCVPNSNERYYGYTGAFRCLAENAGDVAFVKDVTVLQNTDGNNNEAWAKDLKLADFALLCLDGKRKPVTEARSCHLAMAPNHAVVSRMDKVERLKQVLLHQQAKFGRNGSDCPDKFCLFQSETKNLLFNDNTECLARLHGKTTYEKYLGPQYVAGITNLKKCSTSPLLEACEFLRK
B2: Recombinant lactoferrin: recombinant lactoferrin expressed or manufactured in other species, e.g., plant species such as rice (e.g., Ventria Bioscience) (protein, UniProt P02788 20-710, looked up)
Lactotransferrin: GRRRSVQWCAVSQPEATKCFQWQRNMRKVRGPPVSCIKRDSPIQCIQAIAENRADAVTLDGGFIYEAGLAPYKLRPVAAEVYGTERQPRTHYYAVAVVKKGGSFQLNELQGLKSCHTGLRRTAGWNVPIGTLRPFLNWTGPPEPIEAAVARFFSASCVPGADKGQFPNLCRLCAGTGENKCAFSSQEPYFSYSGAFKCLRDGAGDVAFIRESTVFEDLSDEAERDEYELLCPDNTRKPVDKFKDCHLARVPSHAVVARSVNGKEDAIWNLLRQAQEKFGKDKSPKFQLFGSPSGQKDLLFKDSAIGFSRVPPRIDSGLYLGSGYFTAIQNLRKSEEEVAARRARVVWCAVGEQELRKCNQWSGLSEGSVTCSSASTTEDCIALVLKGEADAMSLDGGYVYTAGKCGLVPVLAENYKSQQSSDPDPNCVDRPVEGYLAVAVVRRSDTSLTWNSVKGKKSCHTAVDRTAGWNIPMGLLFNQTGSCKFDEYFSQSCAPGSDPRSNLCALCIGDEQGENKCVPNSNERYYGYTGAFRCLAENAGDVAFVKDVTVLQNTDGNNNEAWAKDLKLADFALLCLDGKRKPVTEARSCHLAMAPNHAVVSRMDKVERLKQVLLHQQAKFGRNGSDCPDKFCLFQSETKNLLFNDNTECLARLHGKTTYEKYLGPQYVAGITNLKKCSTSPLLEACEFLRK
modifications: expressed in rice

How the values were obtained:
[1] = test system: SARS-CoV-2 pseudovirus; type: cell-based
[2] = test system: HSPG receptor; test: hLF cell membrane localization, confocal microscopy of VeroE6/T cells; type: cell-based, African green monkey; conditions: 2.5 µM hLF, cells chilled at 4° C., anti-hLF staining
Procedure: To visualize cell membrane localization of human lactoferrin (hLF), VeroE6/T cells (0.75×10^5 cells/well) were chilled at 4° C. for 1 hr, incubated with 2.5 µM of hLF. Cells were washed, fixed using 4% PFA (Invitrogen), stained with anti-hLF antibody, and fluorescent image was taken under confocal microscope (FIG. 10, middle row). Cell nuclei were visualized using DAPI (FIG. 10, bottom row). To visualize the cell surface and nuclei at the same time, the confocal images above (i.e., FIG. 10, middle and bottom rows) were merged and are presented in FIG. 10, top row. […] To see the effect of heparin on the binding of hLF to the cell surface (specifically the HSPG receptor), cells were co-incubated with hLF and heparin (H), and the confocal image was taken (FIG. 10, right column).

[3] = test system: SARS-CoV pseudovirus; type: cell-based
[4] = target: ACE2 receptor (Homo sapiens, UniProt Q9BYF1); test: Effect on ACE2 receptor enzyme activity; type: biochemical; conditions: binds away from the enzyme active site
Chain of ACE2 receptor (Q9BYF1 18-805): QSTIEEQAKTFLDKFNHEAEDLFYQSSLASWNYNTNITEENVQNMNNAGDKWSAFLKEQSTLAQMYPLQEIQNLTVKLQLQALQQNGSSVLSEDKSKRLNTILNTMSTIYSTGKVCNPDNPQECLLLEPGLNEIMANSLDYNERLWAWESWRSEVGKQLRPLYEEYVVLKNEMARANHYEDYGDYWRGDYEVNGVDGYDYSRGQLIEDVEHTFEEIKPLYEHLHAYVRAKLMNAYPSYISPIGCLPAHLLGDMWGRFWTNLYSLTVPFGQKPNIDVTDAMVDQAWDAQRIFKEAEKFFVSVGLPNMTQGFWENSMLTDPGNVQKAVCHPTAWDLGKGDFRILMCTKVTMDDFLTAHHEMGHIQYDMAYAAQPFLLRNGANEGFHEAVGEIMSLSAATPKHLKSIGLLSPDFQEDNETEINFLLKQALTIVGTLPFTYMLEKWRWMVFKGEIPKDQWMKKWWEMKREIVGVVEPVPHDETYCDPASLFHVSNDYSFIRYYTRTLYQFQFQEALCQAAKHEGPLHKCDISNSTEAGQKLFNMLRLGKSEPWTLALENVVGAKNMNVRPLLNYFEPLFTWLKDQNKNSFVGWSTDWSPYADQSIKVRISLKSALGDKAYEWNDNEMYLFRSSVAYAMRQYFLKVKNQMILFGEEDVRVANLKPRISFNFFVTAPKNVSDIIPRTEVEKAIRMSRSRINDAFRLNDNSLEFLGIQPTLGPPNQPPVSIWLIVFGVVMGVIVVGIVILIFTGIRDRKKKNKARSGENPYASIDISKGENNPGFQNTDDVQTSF
Description: The results were proven using a small molecule inhibitor. This type of fusion protein enables both lactoferrin to bind to the HSPG on the cell surface and the receptor binding site on the S protein to bind to the ACE2 receptor on the cell surface, thereby tying up both the receptor and co-receptor on the host cell and preventing entry of the virus into the cell. […] Thus, in some embodiments, a recombinant protein as described herein, wherein the receptor binding domain of the SARS-CoV-2 spike (S) protein is fused with lactoferrin, binds to the host cell surface receptors (e.g., ACE2 receptor and HSPG) and prevent binding of the SARS-CoV-2 virus from binding and entering the host cell. This approach is different from other studies in the art, in which recombinant proteins bind to the viral particles themselves to prevent attachment of the virus to the cell. The present disclosure rather discloses a recombinant protein that binds to the host cell and effectively ties up the cell surface receptors such that the virus particles can no longer bind and infect the cell.

[5] = test system: SARS-CoV pseudovirus; conditions: cited from earlier work
[6] = acidic pH conditions during inflammation; cited from earlier work

Molecule | inhibition of SARS-CoV-2 infection in target cells ([1]; VeroE6 or VeroE6/Tmprss2) | entry of SARS-CoV-2 virus into cells ([1]; in vitro) | binding to HSPG receptor on the cell membrane [2] | entry of SARS-CoV virus into cells [3] | effect on ACE2 receptor enzyme activity / cellular function [4] | SARS pseudovirus entry [5] | iron affinity relative to transferrin [6] | anti-viral effective concentration range ([1]; virus not named)
B1 | efficient inhibitor | prevent entry | binds the HSPG receptor on the cell membrane | prevent entry | does not interfere with ACE2 receptor activity | prevents SARS pseudovirus entry | 30 times higher than transferrin | –
B2 | – | – | – | – | – | – | – | effective in the low µM range
